One molecule from patent US11078242 (SOTIRA COVID, dated 2021) can be followed below.

Assay [1] has as its target T1, angiotensin converting enzyme-2 (ACE-2), full-length ACE-2 protein (UniProt Q9BYF1 18-740).
T1 construct: also called ACE-2 enzyme; ACE-2 receptor
The assay is described as follows: FITC-labeled ACIS (FIG. 4B).

Assay [2] has as its target T1, angiotensin converting enzyme-2 …. The assay is described as follows: fluorescence polarization; FITC-tagged ACIS peptide titrated with hACE-2.

T1 sequence (Q9BYF1 18-740 limits assumed): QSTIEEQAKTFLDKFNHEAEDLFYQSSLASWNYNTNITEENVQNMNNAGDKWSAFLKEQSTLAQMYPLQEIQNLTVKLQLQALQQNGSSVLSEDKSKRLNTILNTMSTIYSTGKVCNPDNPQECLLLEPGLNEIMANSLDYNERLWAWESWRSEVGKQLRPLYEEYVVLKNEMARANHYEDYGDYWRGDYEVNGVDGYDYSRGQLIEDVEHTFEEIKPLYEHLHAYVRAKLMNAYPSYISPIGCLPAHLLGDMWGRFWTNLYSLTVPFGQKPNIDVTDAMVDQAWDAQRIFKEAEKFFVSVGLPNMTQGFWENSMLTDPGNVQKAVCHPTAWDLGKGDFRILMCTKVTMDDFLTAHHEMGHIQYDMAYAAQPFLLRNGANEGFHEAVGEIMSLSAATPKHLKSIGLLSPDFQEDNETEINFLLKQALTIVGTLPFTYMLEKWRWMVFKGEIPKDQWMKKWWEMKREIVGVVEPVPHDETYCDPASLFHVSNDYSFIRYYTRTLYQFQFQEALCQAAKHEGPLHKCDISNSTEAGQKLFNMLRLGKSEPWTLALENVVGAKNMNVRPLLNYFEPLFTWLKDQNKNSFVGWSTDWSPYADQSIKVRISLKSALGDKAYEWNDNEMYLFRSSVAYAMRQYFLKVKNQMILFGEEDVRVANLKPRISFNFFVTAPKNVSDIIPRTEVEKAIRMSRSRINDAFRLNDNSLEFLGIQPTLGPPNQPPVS

B1: KEPTIDE2 (FITC tagged KEPTIDE; ACIS peptide tagged with FITC probe at C-terminal end) (peptide)
peptide: FQPTNGVGYQPYGK
modifications: FITC at the C-terminal end (on the C-terminal lysine tag according to paragraph 109)
notes: also called FITC-tagged ACIS peptide; FITC-labeled ACIS
A word on the IC50: it is the midpoint of a concentration-inhibition curve. Low values mean inhibition by little substance, high ones a need for much substance. In general, EC50 (read off the curve) refers to the concentration that produces a half-maximal response. The low end stands for greater potency, the high end for weaker potency. The term Kd denotes a measure of binding affinity in units of concentration. High values mean lower affinity, low ones higher affinity. In turn, B1 registered a half-maximal inhibitory concentration (IC50) in assay [1] of 24.5 nM. In assay [2], the “EC50 (read off the curve)” value was about 6 nM and the dissociation constant (Kd) was 6.38 nM.
